Experimental data from article PMC10578488.

Target: recombinant PRMT5/MEP50 complex (human) (UniProt O14744)
Assay: SEC; PRMT5/MEP50 and purified U7 6S combined (molar ratio 4:8 or 4:2) in 20 mM Hepes pH 7.7, 100 mM NaCl, 2 mM DTT, 1 h on ice; Superose 6

recombinant PRMT5/MEP50 complex (human), sequence (O14744 whole entry, chain 1 of 2): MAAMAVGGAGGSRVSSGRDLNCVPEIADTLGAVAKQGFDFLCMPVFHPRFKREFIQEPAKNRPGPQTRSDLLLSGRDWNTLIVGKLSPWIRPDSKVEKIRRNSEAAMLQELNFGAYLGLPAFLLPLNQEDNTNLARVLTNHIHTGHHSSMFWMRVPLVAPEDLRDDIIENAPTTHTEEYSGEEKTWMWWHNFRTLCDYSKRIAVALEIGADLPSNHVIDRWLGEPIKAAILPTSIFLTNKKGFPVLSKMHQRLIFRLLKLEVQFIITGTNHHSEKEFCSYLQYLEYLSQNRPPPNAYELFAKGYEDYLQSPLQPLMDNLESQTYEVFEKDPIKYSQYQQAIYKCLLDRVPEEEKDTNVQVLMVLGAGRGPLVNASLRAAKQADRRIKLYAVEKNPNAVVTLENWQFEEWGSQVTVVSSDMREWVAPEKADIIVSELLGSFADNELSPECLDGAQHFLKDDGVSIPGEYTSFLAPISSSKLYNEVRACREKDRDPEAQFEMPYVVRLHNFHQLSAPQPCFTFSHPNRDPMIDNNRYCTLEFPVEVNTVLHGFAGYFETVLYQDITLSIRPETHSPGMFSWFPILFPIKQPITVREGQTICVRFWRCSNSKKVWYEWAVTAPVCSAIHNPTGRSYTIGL
recombinant PRMT5/MEP50 complex (human), sequence (Q9BQA1 whole entry, chain 2 of 2, further chain): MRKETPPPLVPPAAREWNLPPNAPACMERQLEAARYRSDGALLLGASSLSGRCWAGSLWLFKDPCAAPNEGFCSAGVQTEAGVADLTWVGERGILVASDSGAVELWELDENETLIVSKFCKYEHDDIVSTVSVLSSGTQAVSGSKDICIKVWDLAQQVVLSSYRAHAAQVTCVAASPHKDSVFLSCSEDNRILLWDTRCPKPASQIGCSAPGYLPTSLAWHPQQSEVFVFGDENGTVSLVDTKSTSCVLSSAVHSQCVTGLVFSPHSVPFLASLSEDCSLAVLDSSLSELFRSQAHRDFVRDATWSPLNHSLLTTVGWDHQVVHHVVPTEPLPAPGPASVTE

stoichiometry N (U7 6S per PRMT5/MEP50 heterooctamer): 1
Substance: U7 6S complex (MBP-Lsm10/11ΔNL heterodimer, SmE/F/G heterotrimer and pICln) (from UniProt Q969L4 1-123; P83369 153-360; P62304 1-92; P62306 1-86; P62308 1-76; Q61189 1-236)
